According to patent US20250041437A1 (SUN PHARMA ADVANCED RESEARCH, published 2025):
Where a chain is given by its changes, count along the chain named.

B1: HM2 LM2 variant of humanized anti-MUC1 antibody SP66 (antibody, V domains shown)
VH: EIQLVQSGAEVKKPGSSVKVSCKVTGHSITRGSSWHWMRQAPGQGLEWIGYIHYGGGTSYNPSLKSRITITRDTSTNTAYMELSSLRSEDTAFYFCARYSYDITYRWFFDVWGQGTLVTVSS
VL: DIQMTQSPSTLSASVGDRVTITCRASQNIGTSIHWYQQKPGKAPKLLIKRASESISGVPSRFSGSGSGTEFTLTISSLQPDDFATYYCQQNNNWPLTFGQGTKVEVK
notes: Humanized IgG expressed in CHO cells; only variable domains tied to the variant
B2: HM4 LM3 variant of humanized anti-MUC1 antibody SP66 (antibody, V domains shown)
VH: B1 VH with I68A, I70L, A79F
VL: B1 VL with R50Y
notes: as for B1
B3: HM5 LM2 variant of humanized anti-MUC1 antibody SP66 (antibody, V domains shown)
VH: B1 VH with A79F
VL: B1 VL
notes: as for B1
B4: HM2 LM1 variant of humanized anti-MUC1 antibody SP66 (antibody, V domains shown)
VH: B1 VH
VL: B1 VL with Y36F
notes: as for B1
B5: humanized IgG1 anti-MUC1-SEA mAb (HM5 LM4) (antibody, V domains shown)
VH: B1 VH with A79F
VL: DIQMTQSPSTLSASVGDRVTITCRASQNIGTSIHWYQQKPGKAPKLLIKYASESISGVPSRFSGSGSGTEFTLTISSLQPDDFATYYCQQNNNWPLTFGQGTKVEIKR
notes: also called Humanized anti-MUC1 SEA IgG1; humanized IgG anti-MUC1-SEA mAb
B6: HM3 LM2 variant of humanized anti-MUC1 antibody SP66 (antibody, V domains shown)
VH: B1 VH with I68A, I70L
VL: B1 VL
notes: as for B1
B7: HM5 LM3 variant of humanized anti-MUC1 antibody SP66 (antibody, V domains shown)
VH: B1 VH with A79F
VL: B1 VL with R50Y
notes: as for B1
B8: HM4 LM2 variant of humanized anti-MUC1 antibody SP66 (antibody, V domains shown)
VH: B1 VH with I68A, I70L, A79F
VL: B1 VL
notes: as for B1

These binders were tested against T1, human MUC1 on cells (DA3-TM transfectants and human cancer cell lines SKOV3, COLO357, HT29 and others) (human, UniProt P15941 24-1255) (assay: flow cytometry on DA3-TM cells; table row 4 of 5, about 1.2 nM by the matching point in FIG. 3A).
T1 construct: also called MUC1-SEA; surface MUC1
T1 sequence (P15941 24-1255 limits assumed): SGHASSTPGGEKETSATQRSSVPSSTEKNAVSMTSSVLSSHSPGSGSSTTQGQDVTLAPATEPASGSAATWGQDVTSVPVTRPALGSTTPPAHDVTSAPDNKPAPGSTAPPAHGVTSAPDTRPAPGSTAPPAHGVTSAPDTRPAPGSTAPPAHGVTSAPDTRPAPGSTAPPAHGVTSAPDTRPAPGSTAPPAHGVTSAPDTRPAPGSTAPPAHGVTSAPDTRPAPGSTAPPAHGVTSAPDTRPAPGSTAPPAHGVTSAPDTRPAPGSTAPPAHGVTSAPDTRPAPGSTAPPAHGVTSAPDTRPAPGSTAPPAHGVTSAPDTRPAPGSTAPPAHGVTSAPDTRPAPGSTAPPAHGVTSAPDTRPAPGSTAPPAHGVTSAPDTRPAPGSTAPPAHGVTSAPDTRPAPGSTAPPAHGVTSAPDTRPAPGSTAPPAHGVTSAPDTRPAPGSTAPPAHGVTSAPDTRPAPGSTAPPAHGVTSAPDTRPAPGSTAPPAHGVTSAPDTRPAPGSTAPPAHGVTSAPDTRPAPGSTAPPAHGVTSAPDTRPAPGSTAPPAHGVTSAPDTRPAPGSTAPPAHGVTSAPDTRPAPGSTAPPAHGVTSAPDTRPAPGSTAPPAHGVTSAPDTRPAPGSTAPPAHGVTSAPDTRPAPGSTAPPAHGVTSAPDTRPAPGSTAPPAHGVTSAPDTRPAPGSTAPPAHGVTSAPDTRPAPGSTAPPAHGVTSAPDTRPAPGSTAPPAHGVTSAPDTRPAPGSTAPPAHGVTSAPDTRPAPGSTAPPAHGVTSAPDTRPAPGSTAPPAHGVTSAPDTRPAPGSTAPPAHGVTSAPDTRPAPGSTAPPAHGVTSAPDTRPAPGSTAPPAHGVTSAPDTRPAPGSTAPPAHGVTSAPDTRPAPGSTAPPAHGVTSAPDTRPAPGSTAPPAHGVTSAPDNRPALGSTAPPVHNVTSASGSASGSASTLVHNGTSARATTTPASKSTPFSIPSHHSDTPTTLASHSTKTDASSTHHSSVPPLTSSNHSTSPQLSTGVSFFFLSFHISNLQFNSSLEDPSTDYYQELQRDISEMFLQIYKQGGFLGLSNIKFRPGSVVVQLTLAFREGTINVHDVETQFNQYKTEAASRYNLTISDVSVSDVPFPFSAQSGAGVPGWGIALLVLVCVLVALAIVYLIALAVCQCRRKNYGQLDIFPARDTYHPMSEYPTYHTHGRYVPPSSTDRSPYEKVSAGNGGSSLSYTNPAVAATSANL

Binder | Geometric Mean : FL6-A
B1 | 6400
B2 | 9700
B3 | 14600
B4 | 1870

These binders were tested against T1, human MUC1 on cells (DA3-TM …) (assay: flow cytometry on DA3-TM cells; table row 5 of 5, about 0.4 nM by the matching point in FIG. 3A).

Binder | Geometric Mean : FL6-A
B1 | 2860
B2 | 5320
B3 | 7990
B4 | 727

These binders were tested against T1, human MUC1 on cells (DA3-TM …) (assay: flow cytometry on SKOV-3 cells, geometric mean against concentration).

Binder | EC50 (read off the curve) [nM]
B5 | ~3

Each binder was assayed against T1, human MUC1 on cells (DA3-TM …) (assay: flow cytometry on DA3-TM cells; table row 3 of 5, about 3.7 nM by the matching point in FIG. 3A).

Binder | Geometric Mean : FL6-A
B1 | 11800
B2 | 17600
B3 | 21300
B4 | 4900

What follows are binders tested against T1, human MUC1 on cells (DA3-TM …) (assay: flow cytometry on DA3-TM cells; table row 2 of 5, about 11 nM by the matching point in FIG. 3A).

Binder | Geometric Mean : FL6-A
B1 | 15000
B2 | 22300
B3 | 23700
B4 | 10000

These binders were tested against T1, human MUC1 on cells (DA3-TM …) (assay: flow cytometry, dose-dependent binding on MUC1 positive DA3-TM cells).

Binder | Kd [nM]
B5 | 1
B1 | 3.2
B6 | 3.7
B2 | 1.5
B7 | 0.9
B8 | 2.1
B3 | 1.4
B4 | 14.5
